Test: yeast display, Sf9 membrane polyspecificity reagent, FACS + sequencing; frameworks hold sequencing errors
Summary of the method: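 Using colony PCR, genes from sorted yeast display clones were amplified, then sequenced on MiSeq at 2 × 250 and filtered by CDR length. The clones had been stained with 10% biotinylated, detergent-solubilized Sf9 membrane reagent for 1 hour at 4 °C and sorted by FACS into low and high (top ~1%) gates on anti-HA and streptavidin fluorescence. Polyreactivity labels come from the gate of origin.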

Row | Sequence | polyreactivity (PSR sort gate)
1 | QVQLVESGGGLVQAGGSLRLSCAASGSIFTFYAMGWYRQAPGKERELVAAITTIGGRTYYADSVKGRFTISRDNAKNTVYLQMNSLKPEDTAVYYCAAGYRAWEPYGHYGYWGQGTQVTVSS | high polyreactivity
2 | QVQLVESGGGLVQAGGSLRLSCAASGSIFTFYAMGWYRQAPGKERELVARITNVGNTNYADSVKGRFTISRDNAKNTVYLQMNSLKPEDTAVYYCAARWYWGWTRGDYWGQGTQVTVSS | high polyreactivity
3 | QVQLVESGGGLVQAGGSLRLSCAASGSIFTFYAMGWYRQAPGKEREVVARITNGGNTNYADSGKGRFTISRDNAKNTVYLQMNSLKPEDTEVYYCAARWYWGWTRGDYWGQRTQVTVSS | high polyreactivity
4 | QVQLVESGGGLVQAGGSLRLSCAASGSIFTGNAMGWYRPAPGKERELVAAISSSGGSTYYADSVKGRFTISRDNSKNTVYLQMNSLKPEDTAVYYSAAYNYFLQYDYWGHGTQVTVSS | low polyreactivity
5 | QVQLVESGGGLVQAGGSLRLSCAASGSIFTGNAMGWYRQAPGKERELVAAITQRGGRTYYADSVKGRFTISRDNAKNTVYLQMNSLKPKIPAVYYCNAKWTTLFDYWGQGTQVTVSS | high polyreactivity
6 | QVQLVESGGGLVQAGGSLRLSCAASGSIFTGYAMGWYRQAPGKERELVAAISASGTRTYYADSVKGRFTISRDNAKNTVYLQMNSLKPEDTAVYYCARDSLQVFYPYASDDYWGQGTQVTVSS | low polyreactivity
7 | QVQLVESGGGLVQAGGSLRLSCAASGSIFTGYAMGWYRQAPGKERELVAAISNSGTATYYADSVKGRFTISRDNAKNTVYLQMNSLKPEDSAVYYCNTVGHRWLSDDDYWGQGTQVTVSS | low polyreactivity
8 | QVQLVESGGGLVQAGGSLRLSCAASGSIFTGYAMGWYRQAPGKERELVAAISRSSGSTYYADSVKGRFTISRDNAKNTVYLQMNSLIPEDTAVYYCNAYSKYRSGRLYWMGYWGQGTQVTVSS | low polyreactivity
9 | QVQLVESGGGLVQAGGSLRLSCAASGSIFTGYAMGWYRQAPGKERELVAAISWSGGSTSYADSVKGRFTISLDKAKNDVYLQMNSLKPEDTAVYYCAAERKARTYGYWGQGTEVTVSS | high polyreactivity
10 | QVQLVESGGGLVQAGGSLRLSCAASGSIFTHNAMGSYRQAPGKERELVAAISSGGSTNYADSVKGRFTISRDNAMNTVYLQMNSLKPDDTAVYYCAISIDGWYWRRRRYDYWGQGTQVTVSS | low polyreactivity
11 | QVQLVESGGGLVQAGGSLRLSCAASGSIFTHNAMGWYRQAPGNERELVAAISSGGSTNYADSVKGRFTISRDNAKNTVYLQMNSLKPEDTAVYYCAKSIDGWYWRRRRYDYWGQGTQVTVSS | low polyreactivity
12 | QVQLVESGGGLVQAGGSLRLSCAASGSIFTHYAMGWYRQAPGKERELVAAIARRGGSTYYADSVKGRFTISRDNAKNTVYLQMNSLKPEDTAVYYCAKSPDTAKEYDYWGQGTQVTVSS | high polyreactivity
13 | QVQLVESGGGLVQAGGSLRLSCAASGSIFTINAMGWYRQAPGKERELVAAISFSGGRTYYADSVKGRFTISRDNAKNTVYLQMNSLKPEDTAVYYCAAPFYYYGVRFDYWGQGTQVTVSS | high polyreactivity
14 | QVQLVESGGGLVQAGGSLRLSCAASGSIFTKYAMGWYRQAPGKERELVAAISQGGASTRYADSVKGRFTISRDNAKNTVYLQMNSLKPVDTADEYCAAKSRHFWMDYWGQGTQVTVSS | high polyreactivity
15 | QVQLVESGGGLVQAGGSLRLSCAASGSIFTLYAMGRYRQAPGKERELVAAITWSGGSSYYADSVKGRFTISRDNAKNTVYLQMNSLKPEDTAVYYCAKDYLAGGPWEGLVEREYDYWGQGTQVTVSS | low polyreactivity
16 | QVQLVESGGGLVQAGGSLRLSCAASGSIFTLYAMGWYRQAPGKDRELVATINWSGGSTSYADSGKGRFTISRDNAKNTVYLQMNSLKPEETAVYYCARLGTYTVVTYDYWGQGTQVTVSS | low polyreactivity

Row | Sequence | polyreactivity (PSR sort gate)
17 | QVQLVESGGGLVQAGGSLRLSCAASGSIFTLYAMGWYRQAPGKERELVAAITSGGRTYYADSVKGRFTISRDNAKNTVYLQMKSLKPEDTAVYYCNAVSRSWDFEYWGQGTQVTVSS | high polyreactivity
18 | QVQLVESGGGLVQAGGSLRLSCAASGSIFTPNTMGWYRQAPGKEREFVAAITFSGGSTYYADSVKGRFTISRDNAKNTVYLQMNSLKPEDTAVYYCAAVYPTYDWYTPAYYYWGQGTQVTVSS | low polyreactivity
19 | QVQLVESGGGLVQAGGSLRLSCAASGSIFTPYAMGWSRQAPGKERELVAVISWRVDSTYYADSVKGRFTISRDNAKNTVYLQMNSLKPEDTAVYYCAAKSYLLAPFGSGNRWSRYDYWGQGTQVTVSS | high polyreactivity
20 | QVQLVESGGGLVQAGGSLRLSCAASGSIFTPYAMGWYRQAPGKERELVAVISWRVDSTYYADSVKGRFTISRDNAKNTVYLQMNSLKPEDTAVYYCAAKSYLLAPFGSGNRWSRYDYWGQGTQVTVSS | high polyreactivity
21 | QVQLVESGGGLVQAGGSLRLSCAASGSIFTPYAMGWYRQEPGKERELVAAISRSGGSTYYADSVKGRFTISRDNAKNTVYLQMNSLKPEDTAVYYCAVVVYDIYGYESDYWGQGTQVTVSS | low polyreactivity
22 | QVQLVESGGGLVQAGGSLRLSCAASGSIFTPYTMVWYRQAPGKERELVAAIRPNSGSTYYADSVKGRFTISRDNAKNTVYLQLNSLKPEDTAVYYCNAQCYGPGGGYFWSYDYWGQGTQVTVSS | low polyreactivity
23 | QVQLVESGGGLVQAGGSLRLSCAASGSIFTRNAMGWYRQAPGKERELVAAITSGGRTYYADSVKGRFTISRDNAKNTVYLQMNSLKPEDTAVYYCNAYAWGWYDYWGQGTQVTVSS | high polyreactivity
24 | QVQLVESGGGLVQAGGSLRLSCAASGSIFTRNAMGWYRQAPGKERELVASISWRGGSTYYADSVKGRFTISRDNAKNTVYLQMNSLKPEDTAVYYCNRRAYRNGYGFRDGTWEYDYWGQGTQVTVSS | high polyreactivity
25 | QVQLVESGGGLVQAGGSLRLSCAASGSIFTRNAMGWYRQAPGKERELVATIRKNGASTTYADSVKGRFTISRDNAKNTVYLQMNSLKPEDTAVYYCARDHHTKYNYWGQGTQVTVSS | low polyreactivity
26 | QVQLVESGGGLVQAGGSLRLSCAASGSIFTRNAMGWYRQAPGKERELVATITSNDGSTNYADSVKGRFTISRDNAKNTVYLQMNSLKPEDTAVYYCNRSYGVYSEFDYWGQGTQVTVSS | low polyreactivity
27 | QVQLVESGGGLVQAGGSLRLSCAASGSIFTRNTMGWYRQAPGKERELVAAITSSGGSTYYADSVKGRFTISRDTAKNTVYLQMNSLKPEDTAVYYCAADVGVYYYSFYYWGQGTQVTVSS | high polyreactivity
28 | QVQLVESGGGLVQAGGSLRLSCAASGSIFTRYAMGWYRQAPGKERELVAAISYRGDRTYYADSVKGRFTISRDNAKNTVYLQMNSLKPEDTAVYYCAATVQYSPIYDYWGQGTQVTVSS | high polyreactivity
29 | QVQLVESGGGLVQAGGSLRLSCAASGSIFTRYAMGWYRQAPGKERELVAAITKSGSRTYYADSVKGRSTISRDNAKNTVYLQMNSLKPEDTAVYYCATLQGDSSSQYDYWGQGTQVTVSS | high polyreactivity
30 | QVQLVESGGGLVQAGGSLRLSCAASGSIFTRYAMGWYRQAPGKERELVAVISVSGGRTYYADSVKGRFTISRDNAKNTVYLQMNSLKPEDTAVYYCAVGVLYAGYFYRYRYYYWGQGTQVTVSS | high polyreactivity
31 | QVQLVESGGGLVQAGGSLRLSCAASGSIFTSYAVMGWYRQAPGKERELVAVITGGGITTYADSVKGRFTISRDNAKNTVYLQMNSLKPEDTAVYYCATDGWYHSEYDYWGQGTQVTVSS | low polyreactivity

Source: the nanobody polyreactivity screen of Harvey et al. (2022)
